# Measurements as given in the DeepSol protein solubility set.
# Assay: soluble on expression in E. coli; label from the status in PepcDB or PDB records
row,Sequence,soluble on expression in E. coli
1,EFRKLGEVCESTNKKTLKISEVSEVKNKGMYPVINSGRDLYGYYHDFNNDGENITIASRGEYAGFINYFNEKFFAGGLCYPYKVKDTNELLTKFLYFYLKTNEIQIMENLVFRGSIPALNKADIETLTIPIPPLEIQQEIVKILDQFSA,not soluble
2,EGFYRHQTQSFSFMVNNVQVVFPSSTSKPWQGLASRRQIDIPQEKVDMIKQSGFVQQASSVYAKWDANITNLKGQNLSSTVSGIDTSYFPLIQRKLQSGSRNLSPSDMKNHTRVAVLGDQIAQMGGIQIGDRLKVNGIPFLVIGITVGEDTGISFGDSRTVFIPQTTYRDLWDAKPWMVLMKPRDGMDAPSFRQNIVNFFAKQLHFDPSDKDAVELPDFSEGAAVISGILRGIQI,not soluble
3,EHIEELLRNIRTQVLIKLIKPYTRIHIPFISKELNIDVADVESLLVQCILDNTIHGRIDQVNQLLELDHQKRGGARYTALDKW,soluble
4,EKAQLIGPEDADITFVTWGSQKGPILDVIEDLKQDDITANLLYLKMFSPFPTEFVKSILSKAHLVIDVESNFTAQAAQMIKLYTGIEIENKILKYNGRHMTEDEILNSAKNILNK,not soluble
5,ELYVVASPKSPIMEINKEQLSALYLGRNRVVGNTYINQVLDRSGTVRQRFFLQVTNMQESQINAYWAKLKFSGRLRAPESVVSEQELIAKLEENPFSIGYTDQVPSDALKVLLVL,not soluble
6,EPEEVIPSRLDIRVGKIITVEKHPDADSLYVEKIDVGEAEPRTVVSGLVQFVPKEELQDRLVVVLCNLKPQKMRGVESQGMLLCASIEGINRQVEPLDPPAGSAPGEHVFVKGYEKGQPDEELKPKKKVFEKLQADFKISEECIAQWKQTNFMTKLGSISCKSLKGGNISLE,soluble
7,EQPFYRTKVKLKKEIVTLGVPGVDPNKQVGQYVEAKDWNALISDPEVLLIDTRNDYEVAIGTFEGAVDPKTRSFREFPEYIKAHYDPARHKKVAMFCTGGIRCEKASSYMLGAGFEEVFHLKGGILKYLEEVPQEQSLWRGDCFVFDNRVTVRHDLSEGEYDQCHA,not soluble
8,ESSFTYTLDEKVAELVEFLLLKYEAEEPVTEAEMLMIVIKYKDYFPVILKRAREFMELLFGLALIEVGPDHFCVFANTVGLTDEGSDDEGMPENSLLIIILSVIFIKGNCASEEVIWEVLNAVGVYAGREHFVYGEPRELLTKVWVQGHYLEYREVPHSSPPYYEFLWGPRAHSESIKKKVLEFLAKLNNTVPSSFPSWYKDALKDVEERVQATIDTADD,soluble
9,ETVIMKYLLPTAAAGLLLLAAQPAMAQVKLQQSGAELVRSGTSVKLSCTASGFNIKDSYMHWLRQGPEQGLEWIGWIDPENGDTEYAPKFQGKATFTTDTSSNTAYLQLSSLTSEDTAVYYCNEGTPTGPYYFDYWGQGTTVTVSSGGGGSGGGGSGGGGSENVLTQSPAIMSASPGEKVTITCSASSSVSYMHWFQQKPGTSPKLWIYSTSNLASGVPARFSGSGSGTSYSLTISRMEAEDAATYYCQQRSSYPLTFGAGTKLELKRAAAEQKLISEEDLN,soluble
10,ETVQVNLPVSLEDLFVGKKKSFKIGRKGPHGASEKTQIDIQLKPGWKAGTKITYKNQGDYNPQTGRRKTLQFVIQEKSHPNFKRDGDDLIYTLPLSFKESLLGFSKTIQTIDGRTLPLSRVQPVQPSQTSTYPGQGMPTPKNPSQRGNLIVKYKVDYPISLNDAQKRAIDENF,soluble
11,EVKLQESGPSLVKPSQTLSLTCSVTGDSITSDFWSWIRQFPGNRLEYMGFVQYSGETAYNPSLKSRISITRDTSKNQYYLDLNSVTTEDTAVYYCANWHGDYWGQGTTVTVSSAKTTPPSVYPLAPGSAAQTNSMVTLGCLVKGYFPEPVTVTWNSGSLSSGVHTFPAVLQSDLYTLSSSVTVPSSTWPSETVTCNVAHPASSTKVDKKIVPRDCHHHHHH,soluble
12,EVQLQQSGAELVRPGTSVKLSCKASGYSFTNYWMNWLRQRPGQGLDWIGMIHPSDSETRLNQKFKDKATLTVDRSSSTAYIQLSSPTSEDSAVYYCARDDYDGAFWGQGTLVTVSAAKTTPPSVYPLAPGSAAQTNSMVTLGCLVKGYFPAPVTVTWNSGSLSSGVHTFPAVLQSDLYTLSSSVTVPSSTWPSETVTCNVAHPASSTKVDKKIVPRDC,soluble
13,EYLDGFEAFTDQYKIKFQEFLDRFGIYYQPSTNKNAELFKVADSDIPSAEVKAYYVKEEWYFTPTNSDVDIKIQAICPIMTGQDEFGEVRNQPLFWIPYENIRPYIARERVMLSSLNNTRNSTIDDFFRLNLYKGDIVKTENLHNRALAEYCPTPDSMKMESKRIDKELQGFRDGLFVTQDTTWMKQAETKKSKGKKLEKARGKNITSRTRGQGEGAAETEAVEPKKQKASKNKAATRSVRRRK,not soluble
14,FNFGASYKNFSFSAQFGASWGTYALVQTDLRQEKYDDLEYKNVSAMWKDMYVYEDVLDAGGNVVAPMNRSAKYPNLRYSAINGQASTFWKVSAASVRLRNLTVAYSLPKEWTNRIGISSCRLNLTAQNLLNFYNPYPDGVWSTWGGTYGRYPNLRKVTLGVNVSF,not soluble
15,FRFGLPIFHTIRWLVNLSKGKLEEPRNREGRPVSKNKKGKIKQPYRFFGEIFESMDQLTETLRRDKRNREKIQATREEWIAGLSHDLKTPLSSIYGYSMMLESKQYDWSPEEGEEMGQVVREKSEYMSKLIEDLNLTYRLKNDALPIERKLTSLIPFFKNVIEDFKKNPFSEGYDISFVSKEEHIEFALDEAWFRRILENLLGNAVKHNGKGTEIQVILEQTKNHISLKVKDNGKGMDEETITHLFNRYYRGTNTKDSTAGTGLGLAIAKELVHLHNGTIHVNSRTNIGTVITILFK,not soluble
16,FRGFRYNAGVYFDRSRNKLTEFGAEEIGSYSIKREGLPYDEYYMLECIGVFADQAEINASPKQFNDNTQPGDLKYKDISGPDGKPDGVIDNYDRRTFSGRFPGFEYGINASATWKGFDLSLIGQGVADKKYYTTDWGVQPFMQGSSPNKDYIKHMWTEENPYGAKHPKLYWQDMGGGKNTRPNSYYLKDASFFRLKNLTLGYTLPRVWTEKANISKVRIYFSGDNLLTLTPYKGLDPERNGDGRDAIYPQNRIYSFGLNVEF,not soluble
17,FVNVGERTNVTGSKMFARLVREEKYDEALAVARQQVENGAQIIDVNMDEAMLDSVACMHRFLNLIASEPDIARVPVMIDSSKWEVIETGLKCVQGKAVVNSISMKEGEEPFRHHARLCRRYGAAMVVMAFDEQGQADSLERRKEICGRAYRILVEEEGFPPEDIIFDPNVFAVATGIDEHNHYAVDFIEGARWIRANLPHARISGGISNVSFSFRGNEPMREAIHTVFLYYAIEAGLTMGIVNAGQLGVYADLAPHLRDLVEDVILDRPE,not soluble
18,GAEPKGLLRVDLPVSLGRMVVIPALPEFTRRYPQVRLEIGMSDRPVDLIREGVDCVLRAGAALDEALVARPLGSLTQITCASREYLQQHGTPLQLEDLAHHQVIEYFSASTSKRYGLEFVGEGGAPDHGLACSISVNSADGY,not soluble
19,GAMDENDEGVRGTCEDASLCKRFAVSIGYWHDPYIQHFVRLSKERKAPEINRGYFARVHGVSQLIKAFLRKTECHCQIVNLGAGMDTTFWRLKDEDLLPSKYFEVDFPMIVTRKLHSIKCKPPLSSPILELHSEDTLQMDGHILDSKRYAVIGADLRDLSELEEKLKKCNMNTQLPTLLIAECVLVYMTPEQSANLLKWAANSFERAMFINYEQVNEGKSLESQKERLLSNGWETASAVDMMELYNRLPRAEVSRIESLEFLDEMELLEQLMRHYCLCWATKGGNELGLKEITY,soluble
20,GAMDTMESIVLNTIVTGLQEPKKEFIARVIKTIGSQRSLQLYENAMKVENSGGLLTADMSRRKTIGGVFCYLLKQLVAEDQITIQEWNYIRQEEKERINAKNILKRNNRRCQV,soluble
21,GAMESHPHIQLLKSNRELLVTHIRNTQCLVDNLLKNDYFSAEDAEIVCACPTQPDKVRKILDLVQSKGEEVSEFFLYLLQQLADAYVDLRPWLLEIGFSPSLLTQSKVVVNTDPVSRYTQQLRHHLG,soluble
22,GAMGMKVDVGPDPSLVYRPDVDPEMAKSKDSFRNYTSGPLLDRVFTTYKLMHTHQTVDFVSRKRIQYGSFSYKKMTIMEAVGMLDDLVDESDPDVDFPNSFHAFQTAEGIRKAHPDKDWFHLVGLLHDLGKIMALWGEPQWAVVGDTFPVGCRPQASVVFCDSTFQDNPDLQDPRYSTELGMYQPHCGLENVLMSWGHDEYLYQMMKFNKFSLPSEAFYMIRFHSFYPWHTGGDYRQLCSQQDLDMLPWVQEFNKFDLYTKCPDLPDVESLRPYYQGLIDKYCPGTLSW,soluble
23,GAMKNSFDRLIDGLAKDYGMPGFPEKKHEHEVYCFEFKEVSIRIYQDKFKWVYFLSDIGVIDNLDSNACQSLLRLNEFNLRTPFFTVGLNEKKDGVVHTRIPLLNLDNVEMRRVFEALLNLSGEVKKTFGFV,soluble
24,GAMSCIKGNVDLVFLFDGSMSLQPDEFQKILDFMKDVMKKLSNTSYQFAAVQFSTSYKTEFDFSDYVKRKDPDALLKHVKHMLLLTNTFGAINYVATEVFREELGARPDATKVLIIITDGEATDSGNIDAAKDIIRYIIGIGKHFQTKESQETLHKFASKPASEFVKILDTFEKLKDLFTELQKKIYVIEG,soluble
25,GAMSSPAGSPTEQAPPAKGSVKVLRTVATGLNSPWGLAPLPGGDLLVSSRDEATITRVDAKTGRKTELGEVPGVSPSGEGGLLGIALSPDYASDHMVYAYFTSASDNRIVRMLYDEKKPSGEQLGAPDTVFRGIPKGVIHNGGRIAFGPDKMLYAGTGESGDTGLSQDRKSLGGKILRMTPDGEPAPGNPFPGSPVYSYGHRNVQGLAWDDKQRLFASEFGQDTWDELNAIKPGDNYGWPEAEGKGGGSGFHDPVAQWSTDEASPSGIAYAEGSVWMAGLRGERLWRIPLKGTAAAADPQAFLEGEYGRLRTVAPAGGDKLWLVTSNTDGRGDAKGGDDRILELEVE,soluble
26,GAQNEKNMYSYKKIGNKYIVSINNHTEIVKALNAFCKEKGILSGSINGIGAIGELTLRFFNPKTKAYDDKTFREQMEISNLTGNISSMNEQVYLHLHITVGRSDYSALAGHLLSAIQNGAGEFVVEDYSERISRTYNPDLGLNIYDFER,soluble
27,GDTHEFHKLLIKVVDLFLEDRIKEFEMKLNTTLDELEFEELIGKPDSSNSAENNGIFIDEYSYDASENAMKKLFVEYVRQPEFKYTVLSIKGVNDWVRE,soluble
28,GEALDYKTPLLKALAAVDKAATEVCQLFDKNVTRVFTNLGWEQEYFLVDSSLYNARPDLCLTGRTLMGHSSAKDQQLEDHYFGSIPPRVTAFMKELEIECHKLGIPAKTRHNEVAPNQFELAPIFENCNLANDHNQLVMDLMKRIARKHHFNVLLHEKPYSSVNGSGKHNNWSLCTDTGINLFAPGKNPKGNMLFLTFLVNVLMMVYKNQDLLRASIMSASNSYRLGANEAPPAILSCFLGSQLSATLDEIVRQVGNEKMTPEEKTTLKLGIGRIPEILLDTTDRNRTSPFAFTGNRFEFRAAGSSSNCAAAMIAINAAMANQLNEFRASVEKLMEEGVGKDEAIFRLLKETIIASEAIRFEGDGYSEEWRQEAARRGLTNICHVPEALMHYVDNQSKSVLIGERIFNETELNSRLEVELEKYTMKVQIEGRVLGDLAINH,not soluble
29,GEDFFFVVMRDISSKKILEREFSMNEQLFKDLFDRAVDGIVLFDKDGGFIDANLSFCKSFEINHNELSHLSLYEFIDSGSRKDFDNIWKALNRKGKAKGELPVKLRSGVQKLFEFTITSNII,not soluble
